Source: a protein production outcome set (Wang et al. 2014)

Assay: label from the status in PepcDB records

Sequence	protein production
MKFFSLADEAEFKSIIISKNKAVDVIGSKLGGQVVSFSDEWFASAENLIQPTAPIRDPTRFVHSGAWYDGWETRRHNEMEYDWVIIKMGVAAAHIIGGEIDTAFFNGNHAPFVSIEALYDEGEEGNIVEDDSRWVEIVEKFECGPSQRHLFVRGNGLTKERFTHIKLKMYPDGGIARFRLYGRVVPPELKTKDHIIDLAYVCNGAVALKYSDQHFGSVDNLLLPGRGHDMSDGWETKRSRQPGHTDWAVIQLGRESSFIEKIIVDTAHFRGNFPQFITVEGCLKESESSENTGEGTWVELVGKSKTGPDKEHVYEIRKSIRVSHVKLTIIPDGGVKRIRVWGY	not failed
MKFGEHLSKSLIRQYSYYYISYDDLKTELEDNLSKNNGQWTQELETDFLESLEIELDKVYTFCKVKHSEVFRRVKEVQEQVQHTVRLLDSNNPPTQLDFEILEEELSDIIADVHDLAKFSRLNYTGFQKIIKKHDKKTGFILKPVFQVRLDSKPFFKENYDELVVKISQLYDIARTSGRPIKGDSSAGGKQQNFVRQTTKYWVHPDNITELKLIILKHLPVLVFNTNKEFEREDSAITSIYFDNENLDLYYGRLRKDEGAEAHRLRWYGGMSTDTIFVERKTHREDWTGEKSVKARFALKERHVNDFLKGKYTVDQVFAKMRKEGKKPMNEIENLEALASEIQYVMLKKKLRPVVRSFYNRTAFQLPGDARVRISLDTELTMVREDNFDGVDRTHKNWRRTDIGVDWPFKQLDDKDICRFPYAVLEVKLQTQLGQEPPEWVRELVGSHLVEPVPKFSKFIHGVATLLNDKVDSIPFWLPQMDVDIRKPPLPTNIEITRPGRSDNEDNDFDEDDEDDAALVAAMTNAPGNSLDIEESVGYGATSAPTSNTNHVVESANAAYYQRKIRNAENPISKKYYEIVAFFDHYFNGDQISKIPKGTTFDTQIRAPPGKTICVPVRVEPKVYFATERTYLSWLSISILLGGVSTTLLTYGSPTAMIGSIGFFITSLAVLIRTVMVYAKRVVNIRLKRAVDYEDKIGPGMVSVFLILSILFSFFCNLVAK	failed
MKFLKYFTFELRLRYRNPSQILFVFIFPLFLMFAFSSSFGKSIPHYIENNIASILLYSVLSASLTSLSVQIADHQSGKIYQLFVQRGIKKLFYIIAQIVSFMIIIFCSTLVILVVAHYAYDYEFPKLSLLILFYLKLYLYSIPFCLLAMIIGLLAKNTATASAIAMPLMFLSFFFSGMMIPLAQLSGGIRKIADNFFLTQLLSDLNHTLTSNYTVVPNWSRISLSVGLICLLALLVYRRKA	failed
MKFLRLLKHPASTAPGRAFQLYPWQERIVRAIYGPRHPDGSRIVKTVFLLVPRGNRKTSLAAALALLHTLGPERVPAGQVIFAACDREQAGIGFREAANIIRADKRLVAATRIYDAHNSAKKIVFRAEDVTLSAISSDGGAQHGRTPAFTLIDELHAWKGRDLWEALKSGTAKVADSLTVIATTAGRGADTVAAEQYAYALAVARGEIVNPAFLPILFAPEPGDDWTDEATWHKVNPGLRHGFPSLEGLRTLAKEAEGRPSDAYAFRQFNLNEWMANSRDPLFDFDTYDARRFAEDLDELEGLPCWIGVDLSISGDLSAVVAAWKHPDGQISVKPWFWVPGDDLKVRADRDGVPYERWRDEGHLIATPGAIIDQSAVADQIRELCARFDAQEVAFDPHLARPMMQSLYDEGLPVVEMRQAPLTMGVAAGDLERVVNGRLIRHDGHPVLRNHLQNVCASRSESGLIRMHKVQRTSRIDGAVAAAMAVSRAVAADSRKSAYSDPEAEGLFVF	failed
MKFNEFLNNLSNYEPGKDIEVIAKEYGVKEVIKLASNENPFGTPPKAIECLRQNANKAHLYPDDSMIELKSTLAQKYKVQNENIIIGAGSDQVIEFAIHSKLNSKNAFLQAGVTFAMYEIYAKQCGAKCYKTQSITHNLDEFKKLYETHKDEIKLIFLCLPNNPLGECLDASEATEFIKGVNEDCLVVIDAAYNEFASFKDSKKHLEPCELIKEFDNVLYLGTFSKLYGLGGLRIGYGIANANIISAFYKLRAPFNVSNLALKAAVAAMDDDEFTEKTLENNFSQMELYKEFAKKHNIKIIDSYTNFITYFFDEKNSTDLSEKLLKKGIIIRNLKSYGLNAIRITIGTSYENEKFFTEFDKILR	not failed
MKFQPLGERVLVERLEEENKTSSGIIIPDNAKEKPLMGVVKAVSHKISEGCKCVKEGDVIAFGKYKGAEIVLDGTEYMVLELEDILGIVGSGSCCHTGNHDHKHAKEHEACCHDHKKH	failed
MKFRIDTFTLLLLGAIVLASFLPVTGQAAEALGTAGTIAVALLFFFHGAALSRQQIIDGATHWRLHILITALTFVFFPLAVLPVNELNTIAPEWMPKDLGLGFLYLGVLPSAVSSSIAYTAMARGNVPAAICSAAASNVFGMMLTPFLLLLLVSTSGAGEFSVAEALKDIVLQLLLPFAVGHALRPWLGGYLSRNESLMARYDQCVIWIIVYSAFSHSVVSGLWQNLPVQAIVLAILICFGLLGLFMLIARLMVRKLGFSLEDEAAVVFCGSKKSLASGLPMAKVLFSGHPGFGMIVLPIMCYNQIQVIVGAILAQKYREKIQQAKSAPAHASENGCQNR	failed
MKFSRFRDSKLFFWTIEILAVVAILFVLLQMKYIFSPIGIIVSTLFMPILVAGFLFYLFNPLVLFLEKRKVPRLLSVIVIFIAFITLVVLAVMQLGPTLADQVAELAKAIPGYWQDFEKWLQGLSNNSALKDIDMKQELEKLNISLPKIMSVVVDGVASSFGAIVSFVSSFVMILVTVPFIVFYMFKDGHKFVESSGKFFPAGIRSEAKQIIKEMNKTISTYISSQAIDCMFVGLFTFIGYLIIGQPYALLFGFIAGATNIIPYLGPFIGAAPAVIVALFTSPVQALLVIVVVTIVQQIDSNLLSPYIMGKSLSIHPLTIIIILIVAGNLAGIFGMILGVPLYAVVKTIIVNVNRLIKLRRGQLAIDNNLPNPDTPKK	not failed
MKFVKIALIIAVIALVLFAAKQTGVLEIITDIKSLQEWIAGFGAWGYIVFVAAFVFACVFLLPGSAFTIVAGIVFGPIKGGVLALFSATLGAVVAFIVARFLLRNTIMKKFGDNPIFKKIDDGVAKNGTSFLILTRLVPVFPFSLQNYAYGLTGLNLSTYALVSLITMAPGAFIFAYMAGDIATNGVSAMLLVKFAVAGLILFGMSLIPKYIAKKKGINMEELAK	not failed
MKFVSIEKDEILIGNMAKLYCKVFEKTNFNEMIERMNRHIEYTGFKGIVAINDENEVVGFTYGYRSMEGQYYNQLMREALHLEQVDEWLQDCFEFVELAVHPQYQNEGLGTKLHNELLEGIPNRTSVLTTQINNEKARSLYERLDWVNVLEPFHPSKNDVPYVIMGKALKTKVN	failed
MKFYIDDLPVLFPYPKIYPEQYNYMCDIKKTLDVGGNSILEMPSGTGKTVSLLSLTIAYQMHYPEHRKIIYCSRTMSEIEKALVELENLMDYRTKELGYQEDFRGLGLTSRKNLCLHPEVSKERKGTVVDEKCRRMTNGQAKRKLEEDPEANVELCEYHENLYNIEVEDYLPKGVFSFEKLLKYCEEKTLCPYFIVRRMISLCNIIIYSYHYLLDPKIAERVSNEVSKDSIVIFDEAHNIDNVCIESLSLDLTTDALRRATRGANALDERISEVRKVDSQKLQDEYEKLVQGLHSADILTDQEEPFVETPVLPQDLLTEAIPGNIRRAEHFVSFLKRLIEYLKTRMKVLHVISETPKSFLQHLKQLTFIERKPLRFCSERLSLLVRTLEVTEVEDFTALKDIATFATLISTYEEGFLLIIEPYEIENAAVPNPIMRFTCLDASIAIKPVFERFSSVIITSGTISPLDMYPRMLNFKTVLQKSYAMTLAKKSFLPMIITKGSDQVAISSRFEIRNDPSIVRNYGSMLVEFAKITPDGMVVFFPSYLYMESIVSMWQTMGILDEVWKHKLILVETPDAQETSLALETYRKACSNGRGAILLSVARGKVSEGIDFDHQYGRTVLMIGIPFQYTESRILKARLEFMRENYRIRENDFLSFDAMRHAAQCLGRVLRGKDDYGVMVLADRRFSRKRSQLPKWIAQGLSDADLNLSTDMAISNTKQFLRTMAQPTDPKDQEGVSVWSYEDLIKHQNSRKDQGGFIENENKEGEQDEDEDEDIEMQ	failed
MKGDRLADIRTIGVVVLYRPDSSVLDAIASYRHQVHELIVVDNSEEQDHKLHSRLRDRFGATIVGEGRNLGIAAALNRAAREALAEGFDLLLTMDQDSRAEPGMVEQMLACLGSDWRERVGLIAPFHLTGARPAPGGTTPCSDVMTPMTSGCLVNLAAFREVGPFRDDFFIDFVDNEYCLRLRKKGFQVVRANRALLHHRVGDLRRYGPFVATHHSPLRRYYKTRNRCAVFAEYLRDFPVHCLFDLVRLGKEVASILIFEREKTAKLRMMWRGFLDFRRGRFGPYGGLEHHHHHH	failed
